Bounds are passed on as bounds.

This is an account of results in US20250250321A1.

In the assay the target is immunoglobulin G (IgG) obtained from human serum (human). In words: human serum IgG (2 mg/mL) bound to Protein A on latex beads, washed, read by SDS-PAGE.

“Protein A polymer (UniStac linear multimeric polymer of Protein A) immobilized on latex beads” showed an increase of binding activity compared to beads with the Protein A monomer of over 15%.
